One data set addresses T1, v3.1_PPR24 (Artificial Sequence).
T1 chain: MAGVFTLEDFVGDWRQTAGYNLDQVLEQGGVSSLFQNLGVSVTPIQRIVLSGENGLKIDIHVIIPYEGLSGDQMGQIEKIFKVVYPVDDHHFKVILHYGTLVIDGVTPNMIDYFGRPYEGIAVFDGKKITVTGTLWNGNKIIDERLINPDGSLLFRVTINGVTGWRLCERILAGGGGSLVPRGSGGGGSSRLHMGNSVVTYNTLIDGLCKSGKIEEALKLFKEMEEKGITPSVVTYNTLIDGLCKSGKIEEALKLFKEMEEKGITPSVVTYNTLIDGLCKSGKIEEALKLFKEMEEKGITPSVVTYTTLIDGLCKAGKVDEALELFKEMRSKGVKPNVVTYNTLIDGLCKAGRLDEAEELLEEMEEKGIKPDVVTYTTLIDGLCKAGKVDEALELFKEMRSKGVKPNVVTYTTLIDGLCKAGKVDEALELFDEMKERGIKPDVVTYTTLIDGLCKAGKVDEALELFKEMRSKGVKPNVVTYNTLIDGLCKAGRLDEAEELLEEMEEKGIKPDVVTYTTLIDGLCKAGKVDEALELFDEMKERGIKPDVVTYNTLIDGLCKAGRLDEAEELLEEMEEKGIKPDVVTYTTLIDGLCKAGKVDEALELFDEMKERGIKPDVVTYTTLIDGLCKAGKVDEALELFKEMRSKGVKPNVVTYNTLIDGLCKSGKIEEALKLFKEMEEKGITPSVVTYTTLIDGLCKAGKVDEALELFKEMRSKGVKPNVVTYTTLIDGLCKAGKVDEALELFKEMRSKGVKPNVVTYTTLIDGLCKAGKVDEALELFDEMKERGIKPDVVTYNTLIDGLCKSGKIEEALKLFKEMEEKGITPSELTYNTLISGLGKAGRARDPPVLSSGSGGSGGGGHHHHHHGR
The data set can be described thus: ELONA; RPB-ELISA. The settings on record: tags: luciferase fusion; label: 5'-biotin.

In data set [1] the target is MS2 coat protein (NL_MS2_HIS) (UniProt P03612 SEQ:194-322). The data set can be described thus: ELONA; RPB-ELISA; non-target RNA. The settings on record: tags: N-term luciferase, C-term 6xHis; chain copies: 2; label: 5'-biotin.
MS2 coat protein (NL_MS2_HIS), sequence (P03612 2-130): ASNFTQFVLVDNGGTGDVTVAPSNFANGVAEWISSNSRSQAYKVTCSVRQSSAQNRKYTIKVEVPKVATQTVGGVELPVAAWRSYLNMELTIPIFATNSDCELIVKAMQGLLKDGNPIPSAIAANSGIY
The target of another data set is T2, v3.1_PPR22 (Artificial Sequence).
T2 chain: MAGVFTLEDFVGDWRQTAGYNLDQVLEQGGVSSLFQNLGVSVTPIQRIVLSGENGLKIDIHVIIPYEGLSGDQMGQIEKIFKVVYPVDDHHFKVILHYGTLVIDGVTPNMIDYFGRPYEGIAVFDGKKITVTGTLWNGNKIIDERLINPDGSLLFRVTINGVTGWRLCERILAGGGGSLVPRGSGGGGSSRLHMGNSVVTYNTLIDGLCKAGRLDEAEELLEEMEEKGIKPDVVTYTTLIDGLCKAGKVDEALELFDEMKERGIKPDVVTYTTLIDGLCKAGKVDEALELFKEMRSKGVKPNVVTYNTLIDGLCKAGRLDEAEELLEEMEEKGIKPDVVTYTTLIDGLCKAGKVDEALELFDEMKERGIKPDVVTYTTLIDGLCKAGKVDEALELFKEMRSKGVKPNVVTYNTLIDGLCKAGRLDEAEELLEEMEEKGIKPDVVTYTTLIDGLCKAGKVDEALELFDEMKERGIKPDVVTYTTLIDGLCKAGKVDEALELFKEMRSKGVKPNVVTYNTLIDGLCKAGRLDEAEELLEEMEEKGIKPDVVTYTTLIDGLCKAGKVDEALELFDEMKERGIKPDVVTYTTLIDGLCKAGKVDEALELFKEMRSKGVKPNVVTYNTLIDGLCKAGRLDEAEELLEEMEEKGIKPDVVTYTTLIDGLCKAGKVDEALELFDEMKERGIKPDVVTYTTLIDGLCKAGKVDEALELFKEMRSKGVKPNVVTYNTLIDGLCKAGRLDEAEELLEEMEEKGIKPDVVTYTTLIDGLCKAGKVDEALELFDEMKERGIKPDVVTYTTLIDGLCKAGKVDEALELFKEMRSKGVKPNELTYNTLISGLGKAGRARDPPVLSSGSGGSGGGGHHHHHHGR
The data set can be described thus: ELONA; RPB-ELISA. The conditions noted are these: tags: luciferase fusion; label: 5'-biotin. Background: An ELISA detects its analyte on a solid surface through an enzyme-linked reagent.

For another data set, the target named is T3, NL_v2_PPR22 (Artificial Sequence).
T3 chain: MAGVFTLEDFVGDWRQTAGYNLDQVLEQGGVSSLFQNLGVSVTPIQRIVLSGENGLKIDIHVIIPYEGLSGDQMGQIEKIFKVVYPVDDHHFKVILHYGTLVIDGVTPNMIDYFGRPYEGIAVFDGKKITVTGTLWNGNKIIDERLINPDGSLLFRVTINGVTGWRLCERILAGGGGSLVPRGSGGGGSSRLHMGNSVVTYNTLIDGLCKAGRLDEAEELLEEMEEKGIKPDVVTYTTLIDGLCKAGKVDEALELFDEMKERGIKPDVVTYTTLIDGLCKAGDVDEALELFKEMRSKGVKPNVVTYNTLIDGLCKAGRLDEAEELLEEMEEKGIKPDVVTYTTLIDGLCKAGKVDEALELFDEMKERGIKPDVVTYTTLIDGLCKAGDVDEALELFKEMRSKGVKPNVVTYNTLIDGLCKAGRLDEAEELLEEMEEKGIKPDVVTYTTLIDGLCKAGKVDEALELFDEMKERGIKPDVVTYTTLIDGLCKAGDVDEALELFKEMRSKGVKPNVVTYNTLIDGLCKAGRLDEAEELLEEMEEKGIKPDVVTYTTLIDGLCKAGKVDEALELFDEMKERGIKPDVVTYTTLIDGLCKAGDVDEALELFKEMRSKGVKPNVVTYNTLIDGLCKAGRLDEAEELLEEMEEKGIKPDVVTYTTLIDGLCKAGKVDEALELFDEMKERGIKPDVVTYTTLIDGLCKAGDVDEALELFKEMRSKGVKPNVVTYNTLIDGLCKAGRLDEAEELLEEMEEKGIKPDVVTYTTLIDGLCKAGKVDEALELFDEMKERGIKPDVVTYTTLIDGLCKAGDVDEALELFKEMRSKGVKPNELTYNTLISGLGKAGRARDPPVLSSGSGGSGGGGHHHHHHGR
The data set can be described thus: ELONA; RPB-ELISA. The settings on record: tags: N-term luciferase, C-term 6xHis; label: 5'-biotin.

For the next data set, the target named is T4, NL_v2_PPR23 (Artificial Sequence).
T4 chain: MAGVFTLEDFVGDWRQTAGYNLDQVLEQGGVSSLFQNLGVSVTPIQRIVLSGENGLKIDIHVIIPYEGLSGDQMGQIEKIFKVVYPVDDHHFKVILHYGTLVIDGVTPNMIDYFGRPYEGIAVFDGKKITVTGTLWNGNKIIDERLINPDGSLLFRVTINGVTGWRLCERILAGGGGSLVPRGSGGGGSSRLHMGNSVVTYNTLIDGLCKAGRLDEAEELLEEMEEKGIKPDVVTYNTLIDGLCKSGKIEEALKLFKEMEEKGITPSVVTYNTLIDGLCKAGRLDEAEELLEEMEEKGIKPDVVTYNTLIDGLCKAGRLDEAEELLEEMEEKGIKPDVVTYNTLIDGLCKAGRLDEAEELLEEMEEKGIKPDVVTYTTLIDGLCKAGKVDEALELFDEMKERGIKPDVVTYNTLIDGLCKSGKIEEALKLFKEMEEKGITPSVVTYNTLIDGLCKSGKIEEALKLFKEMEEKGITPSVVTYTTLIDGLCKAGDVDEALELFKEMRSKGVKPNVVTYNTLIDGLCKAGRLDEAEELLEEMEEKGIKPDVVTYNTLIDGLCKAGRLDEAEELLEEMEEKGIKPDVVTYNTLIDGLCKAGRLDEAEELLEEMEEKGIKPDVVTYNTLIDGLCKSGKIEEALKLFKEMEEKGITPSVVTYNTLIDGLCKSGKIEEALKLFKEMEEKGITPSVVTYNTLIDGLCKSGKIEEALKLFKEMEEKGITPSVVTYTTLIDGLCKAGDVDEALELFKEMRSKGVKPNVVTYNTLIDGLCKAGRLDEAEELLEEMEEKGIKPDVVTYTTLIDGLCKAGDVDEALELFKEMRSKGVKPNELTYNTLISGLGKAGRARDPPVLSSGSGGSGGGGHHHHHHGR
The data set can be described thus: ELONA; RPB-ELISA. The conditions noted are these: tags: N-term luciferase, C-term 6xHis; label: 5'-biotin.

A further data set deals with T5, v3.1_PPR23 (Artificial Sequence).
T5 chain: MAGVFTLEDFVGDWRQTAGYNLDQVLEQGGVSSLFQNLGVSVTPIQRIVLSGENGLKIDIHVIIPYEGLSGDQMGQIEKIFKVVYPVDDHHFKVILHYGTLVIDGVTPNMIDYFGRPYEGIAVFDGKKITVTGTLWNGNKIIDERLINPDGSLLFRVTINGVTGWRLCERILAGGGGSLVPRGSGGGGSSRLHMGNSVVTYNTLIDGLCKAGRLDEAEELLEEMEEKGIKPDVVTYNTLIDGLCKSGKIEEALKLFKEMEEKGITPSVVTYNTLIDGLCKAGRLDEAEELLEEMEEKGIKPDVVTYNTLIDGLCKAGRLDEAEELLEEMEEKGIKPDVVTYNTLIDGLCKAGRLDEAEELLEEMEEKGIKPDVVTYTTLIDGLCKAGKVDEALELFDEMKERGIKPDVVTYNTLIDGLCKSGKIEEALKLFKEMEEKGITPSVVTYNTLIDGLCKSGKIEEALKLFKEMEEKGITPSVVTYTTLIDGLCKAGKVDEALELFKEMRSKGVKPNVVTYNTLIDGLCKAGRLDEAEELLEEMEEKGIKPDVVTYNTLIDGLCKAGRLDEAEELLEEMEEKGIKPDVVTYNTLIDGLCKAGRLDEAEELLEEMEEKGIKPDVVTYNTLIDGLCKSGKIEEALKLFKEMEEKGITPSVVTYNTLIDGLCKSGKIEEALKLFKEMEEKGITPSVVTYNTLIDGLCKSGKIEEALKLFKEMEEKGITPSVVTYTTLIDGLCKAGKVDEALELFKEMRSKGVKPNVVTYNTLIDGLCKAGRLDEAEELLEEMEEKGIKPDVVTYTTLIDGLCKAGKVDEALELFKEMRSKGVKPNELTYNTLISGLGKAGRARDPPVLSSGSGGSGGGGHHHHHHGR
The data set can be described thus: ELONA; RPB-ELISA. The conditions noted are these: tags: luciferase fusion; label: 5'-biotin.

The values that follow come from patent publication US20220289795, “EFFICIENT METHOD FOR PREPARING PPR PROTEIN AND USE OF THE SAME” (EditForce, Inc., published 2022).

GACAUGCCCCAUAGAUGUGACAAGCGACUG (ssRNA) [RNA_24]: the binding signal with v3.1_PPR24 worked out at 5.5e+07 luminescence.

Consider GACAUGCUGGUGUAUCUUGUCUUUAGACUG (ssRNA) [RNA_51], for which the binding result in data set [1] is reported as “no binding”. GACAUGCUGAUGAUGAUGAUGAUGAGACUG (ssRNA) [RNA_22]: the binding signal stood at 5.5e+07 luminescence with v3.1_PPR22 and 5.6e+07 luminescence with NL_v2_PPR22.

On to GACAUGCUCUUUGCCAUUUCCCAUAGACUG (ssRNA) [RNA_23], for which the binding signal with NL_v2_PPR23 is 2.6e+07 luminescence; in the data set with v3.1_PPR23 it was 5.3e+07 luminescence.
